Data from patent US20220235120A1 (UNIVERSITY OF MARYLAND BALTIMORE, published 2022).

Key:
[1] = target: Clostridium difficile toxin B (TcdB) (Clostridium difficile, UniProt P18177 2-2366); assay: cell-based or functional assay
[2] = target: Clostridium difficile toxin A (TcdA) (Clostridium difficile, UniProt P16154 1-2710); assay: cell-based or functional assay
Clostridium difficile toxin A (TcdA), sequence (P16154 whole entry): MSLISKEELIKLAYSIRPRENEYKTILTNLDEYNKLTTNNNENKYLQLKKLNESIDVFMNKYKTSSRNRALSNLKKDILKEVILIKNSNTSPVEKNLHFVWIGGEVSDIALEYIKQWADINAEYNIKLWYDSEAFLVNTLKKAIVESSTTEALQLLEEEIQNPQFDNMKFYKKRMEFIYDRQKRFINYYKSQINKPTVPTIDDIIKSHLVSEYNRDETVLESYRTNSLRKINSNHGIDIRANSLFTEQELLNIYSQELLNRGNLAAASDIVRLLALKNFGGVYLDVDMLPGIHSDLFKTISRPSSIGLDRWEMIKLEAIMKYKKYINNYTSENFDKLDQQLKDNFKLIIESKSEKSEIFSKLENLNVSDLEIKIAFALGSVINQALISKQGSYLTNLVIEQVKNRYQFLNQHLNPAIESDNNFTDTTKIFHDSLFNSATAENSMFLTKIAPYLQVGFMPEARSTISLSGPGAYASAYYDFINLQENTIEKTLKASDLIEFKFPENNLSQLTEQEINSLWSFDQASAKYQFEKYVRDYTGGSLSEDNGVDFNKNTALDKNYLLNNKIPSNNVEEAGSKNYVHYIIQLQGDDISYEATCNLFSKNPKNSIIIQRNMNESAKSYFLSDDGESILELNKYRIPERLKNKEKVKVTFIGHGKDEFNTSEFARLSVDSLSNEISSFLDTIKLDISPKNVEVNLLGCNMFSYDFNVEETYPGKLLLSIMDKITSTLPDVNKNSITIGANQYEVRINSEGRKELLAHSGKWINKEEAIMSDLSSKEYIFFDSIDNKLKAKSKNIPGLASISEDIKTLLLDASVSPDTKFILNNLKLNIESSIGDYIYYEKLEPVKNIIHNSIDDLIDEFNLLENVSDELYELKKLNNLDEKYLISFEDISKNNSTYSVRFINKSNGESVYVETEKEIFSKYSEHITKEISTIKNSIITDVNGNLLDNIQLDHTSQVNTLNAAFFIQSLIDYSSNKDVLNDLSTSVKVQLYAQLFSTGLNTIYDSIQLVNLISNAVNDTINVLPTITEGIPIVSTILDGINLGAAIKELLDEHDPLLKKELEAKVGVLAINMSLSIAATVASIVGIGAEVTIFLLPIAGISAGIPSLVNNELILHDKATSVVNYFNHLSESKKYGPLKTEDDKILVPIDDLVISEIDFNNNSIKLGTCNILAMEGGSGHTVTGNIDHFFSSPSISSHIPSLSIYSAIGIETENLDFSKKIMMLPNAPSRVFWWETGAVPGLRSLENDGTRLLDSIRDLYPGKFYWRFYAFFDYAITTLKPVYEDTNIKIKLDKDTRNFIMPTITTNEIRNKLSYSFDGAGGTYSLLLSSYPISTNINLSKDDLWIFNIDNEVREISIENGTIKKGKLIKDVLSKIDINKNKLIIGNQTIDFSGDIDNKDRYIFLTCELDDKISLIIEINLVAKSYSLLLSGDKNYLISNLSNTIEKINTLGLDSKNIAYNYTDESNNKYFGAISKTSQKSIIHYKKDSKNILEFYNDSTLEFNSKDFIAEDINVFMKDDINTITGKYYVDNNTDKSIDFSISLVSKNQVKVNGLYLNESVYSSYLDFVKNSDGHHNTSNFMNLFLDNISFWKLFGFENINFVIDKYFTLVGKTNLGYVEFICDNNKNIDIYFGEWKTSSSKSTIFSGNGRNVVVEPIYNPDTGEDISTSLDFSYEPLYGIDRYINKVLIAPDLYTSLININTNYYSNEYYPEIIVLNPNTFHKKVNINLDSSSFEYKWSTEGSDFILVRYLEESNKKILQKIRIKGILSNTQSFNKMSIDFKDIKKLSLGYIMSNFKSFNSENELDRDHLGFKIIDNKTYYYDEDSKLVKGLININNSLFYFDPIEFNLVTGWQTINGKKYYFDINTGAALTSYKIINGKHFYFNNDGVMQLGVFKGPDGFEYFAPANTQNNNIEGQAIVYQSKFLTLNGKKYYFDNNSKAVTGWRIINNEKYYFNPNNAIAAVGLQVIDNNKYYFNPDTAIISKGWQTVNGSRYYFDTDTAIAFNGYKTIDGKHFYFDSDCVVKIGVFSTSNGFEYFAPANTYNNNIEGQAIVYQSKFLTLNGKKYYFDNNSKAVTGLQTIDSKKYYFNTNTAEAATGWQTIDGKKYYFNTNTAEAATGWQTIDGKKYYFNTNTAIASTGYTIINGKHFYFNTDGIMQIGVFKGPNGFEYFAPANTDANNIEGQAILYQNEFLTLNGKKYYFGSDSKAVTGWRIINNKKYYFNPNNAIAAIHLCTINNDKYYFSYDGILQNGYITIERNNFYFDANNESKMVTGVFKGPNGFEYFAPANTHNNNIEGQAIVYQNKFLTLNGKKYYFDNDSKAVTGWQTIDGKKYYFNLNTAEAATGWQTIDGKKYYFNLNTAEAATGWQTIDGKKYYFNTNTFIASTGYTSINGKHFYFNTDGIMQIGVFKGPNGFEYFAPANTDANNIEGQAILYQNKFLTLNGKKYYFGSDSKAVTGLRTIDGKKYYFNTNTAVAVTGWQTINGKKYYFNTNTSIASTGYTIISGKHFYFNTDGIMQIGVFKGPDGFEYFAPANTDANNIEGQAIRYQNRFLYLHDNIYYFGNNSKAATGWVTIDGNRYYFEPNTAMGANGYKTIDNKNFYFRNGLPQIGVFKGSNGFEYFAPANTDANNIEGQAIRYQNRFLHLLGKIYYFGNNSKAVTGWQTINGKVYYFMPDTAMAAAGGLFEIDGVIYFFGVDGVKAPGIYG

Clostridium difficile toxin B (TcdB), sequence (P18177 2-2366 limits assumed): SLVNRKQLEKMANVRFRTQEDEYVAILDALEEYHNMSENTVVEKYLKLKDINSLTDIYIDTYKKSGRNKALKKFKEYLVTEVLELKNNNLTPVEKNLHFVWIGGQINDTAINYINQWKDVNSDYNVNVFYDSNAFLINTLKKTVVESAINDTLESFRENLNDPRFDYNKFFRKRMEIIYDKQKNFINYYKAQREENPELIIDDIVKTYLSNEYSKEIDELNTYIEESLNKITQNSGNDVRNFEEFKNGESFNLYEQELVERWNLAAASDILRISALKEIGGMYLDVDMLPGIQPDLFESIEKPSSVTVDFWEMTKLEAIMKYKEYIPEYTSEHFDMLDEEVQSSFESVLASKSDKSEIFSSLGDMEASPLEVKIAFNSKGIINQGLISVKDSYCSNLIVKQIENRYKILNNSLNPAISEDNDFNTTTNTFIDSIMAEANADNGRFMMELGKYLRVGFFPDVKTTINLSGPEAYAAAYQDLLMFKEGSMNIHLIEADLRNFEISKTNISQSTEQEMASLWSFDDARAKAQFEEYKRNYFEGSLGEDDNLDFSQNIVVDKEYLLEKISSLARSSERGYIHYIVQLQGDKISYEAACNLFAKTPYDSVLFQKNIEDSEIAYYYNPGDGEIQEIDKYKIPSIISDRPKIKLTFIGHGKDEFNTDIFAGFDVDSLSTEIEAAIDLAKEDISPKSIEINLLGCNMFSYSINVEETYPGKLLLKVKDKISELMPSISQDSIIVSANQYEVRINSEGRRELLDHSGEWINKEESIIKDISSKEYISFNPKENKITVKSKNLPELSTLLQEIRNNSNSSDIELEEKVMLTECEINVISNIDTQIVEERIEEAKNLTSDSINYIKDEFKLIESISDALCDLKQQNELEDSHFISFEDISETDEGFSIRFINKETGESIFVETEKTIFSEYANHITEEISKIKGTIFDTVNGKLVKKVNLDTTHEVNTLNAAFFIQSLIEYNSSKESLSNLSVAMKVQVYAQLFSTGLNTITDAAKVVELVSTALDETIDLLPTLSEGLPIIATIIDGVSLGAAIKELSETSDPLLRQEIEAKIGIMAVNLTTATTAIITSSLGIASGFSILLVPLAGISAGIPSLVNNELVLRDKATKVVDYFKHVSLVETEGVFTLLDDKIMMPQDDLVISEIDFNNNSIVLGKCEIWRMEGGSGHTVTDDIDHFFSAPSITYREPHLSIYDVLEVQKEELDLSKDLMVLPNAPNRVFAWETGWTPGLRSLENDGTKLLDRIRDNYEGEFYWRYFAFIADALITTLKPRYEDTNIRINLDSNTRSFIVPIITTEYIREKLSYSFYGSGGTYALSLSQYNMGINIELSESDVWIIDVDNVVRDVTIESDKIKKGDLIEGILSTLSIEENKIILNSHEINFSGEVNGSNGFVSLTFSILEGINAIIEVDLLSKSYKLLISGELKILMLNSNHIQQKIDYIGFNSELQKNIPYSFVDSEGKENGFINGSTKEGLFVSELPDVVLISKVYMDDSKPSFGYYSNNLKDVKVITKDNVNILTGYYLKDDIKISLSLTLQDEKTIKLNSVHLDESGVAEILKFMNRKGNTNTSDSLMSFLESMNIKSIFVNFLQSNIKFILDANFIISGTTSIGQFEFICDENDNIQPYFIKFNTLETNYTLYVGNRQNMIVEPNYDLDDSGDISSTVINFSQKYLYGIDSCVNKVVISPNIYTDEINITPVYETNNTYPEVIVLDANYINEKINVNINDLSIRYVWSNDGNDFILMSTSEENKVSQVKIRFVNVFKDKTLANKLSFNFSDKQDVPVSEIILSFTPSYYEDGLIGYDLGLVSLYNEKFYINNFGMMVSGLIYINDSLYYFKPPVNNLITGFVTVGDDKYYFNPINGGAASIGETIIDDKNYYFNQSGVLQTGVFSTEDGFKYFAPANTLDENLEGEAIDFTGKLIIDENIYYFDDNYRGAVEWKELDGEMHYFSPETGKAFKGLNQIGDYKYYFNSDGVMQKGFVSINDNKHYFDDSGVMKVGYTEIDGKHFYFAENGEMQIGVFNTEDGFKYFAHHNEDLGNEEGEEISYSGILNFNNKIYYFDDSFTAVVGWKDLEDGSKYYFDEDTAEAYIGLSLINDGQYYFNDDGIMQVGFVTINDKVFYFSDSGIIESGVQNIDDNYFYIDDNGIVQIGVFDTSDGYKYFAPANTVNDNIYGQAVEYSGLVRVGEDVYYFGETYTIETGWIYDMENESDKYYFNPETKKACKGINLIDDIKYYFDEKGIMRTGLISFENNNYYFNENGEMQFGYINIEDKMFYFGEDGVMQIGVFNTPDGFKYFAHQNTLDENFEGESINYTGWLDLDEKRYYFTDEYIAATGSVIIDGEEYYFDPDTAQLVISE

B1: FZ003 binding agent (tetra-specific, octameric VHH-IgG1 with CDR-grafted humanized VHHs) (bispecific antibody)
light: EVQLLESGGGLVQPGGSLRLSCAASGFTFSDYVMTWVRQAPGKGPEWIATINTDGSTMRDDSTKGRFTISRDNSKNTLYLQMNSLRAEDTAVYYCARGRVISASAIRGAVRGQGTLVTVSSGGGGSGGGGSGGGGSEVQLLESGGGLVQPGGSLRLSCAASGSIAGFETVTWSRQAPGKSLQWVASMTKTNNEIYSDSVKGRFTISRDNSKNTVYLQMNSLRAEDTAVYYCKGPELRGQGTLVTVSSRTVAAPSVFIFPPSDEQLKSGTASVVCLLNNFYPREAKVQWKVDNALQSGNSQESVTEQDSKDSTYSLSSTLTLSKADYEKHKVYACEVTHQGLSSPVTKSFNRGEC
heavy: not shown
[1]
  survival in mouse systemic toxin challenge (toxins pre-incubated with antibody): > 1000 fold more potent than the Merck antibody
[2]
  survival in mouse systemic toxin challenge (toxins pre-incubated with antibody): > 1000 fold more potent than the Merck antibody
